Reference: IntAct's records for PubMed 29039417

B1: Protein PTHB1 (Homo sapiens), Q3SYG4 (parent)
chain: MSLFKARDWWSTILGDKEEFDQGCLCLANVDNSGNGQDKIIVGSFMGYLRIFSPHPAKTGDGAQAEDLLLEVDLRDPVLQVEVGKFVSGTEMLHLAVLHSRKLCVYSVSGTLGNVEHGNQCQMKLMYEHNLQRTACNMTYGSFGGVKGRDLICIQSMDGMLMVFEQESYAFGRFLPGFLLPGPLAYSSRTDSFLTVSSCQQVESYKYQVLAFATDADKRQETEQQKLGSGKRLVVDWTLNIGEQALDICIVSFNQSASSVFVLGERNFFCLKDNGQIRFMKKLDWSPSCFLPYCSVSEGTINTLIGNHNNMLHIYQDVTLKWATQLPHIPVAVRVGCLHDLKGVIVTLSDDGHLQCSYLGTDPSLFQAPNVQSRELNYDELDVEMKELQKIIKDVNKSQGVWPMTEREDDLNVSVVVSPNFDSVSQATDVEVGTDLVPSVTVKVTLQNRVILQKAKLSVYVQPPLELTCDQFTFEFMTPDLTRTVSFSVYLKRSYTPSELEGNAVVSYSRPTDRNPDGIPRVIQCKFRLPLKLICLPGQPSKTASHKITIDTNKSPVSLLSLFPGFASQSDDDQVNVMGFHFLGGARITVLASKTSQRYRIQSEQFEDLWLITNELILRLQEYFEKQGVKDFACSFSGSIPLQEYFELIDHHFELRINGEKLEELLSERAVQFRAIQRRLLARFKDKTPAPLQHLDTLLDGTYKQVIALADAVEENQGNLFQSFTRLKSATHLVILLIALWQKLSADQVAILEAAFLPLQEDTQELGWEETVDAAISHLLKTCLSKSSKEQALNLNSQLNIPKDTSQLKKHITLLCDRLSKGGRLCLSTDAAAPQTMVMPGGCTTIPESDLEERSVEQDSTELFTNHRHLTAETPRPEVSPLQGVSE
partner: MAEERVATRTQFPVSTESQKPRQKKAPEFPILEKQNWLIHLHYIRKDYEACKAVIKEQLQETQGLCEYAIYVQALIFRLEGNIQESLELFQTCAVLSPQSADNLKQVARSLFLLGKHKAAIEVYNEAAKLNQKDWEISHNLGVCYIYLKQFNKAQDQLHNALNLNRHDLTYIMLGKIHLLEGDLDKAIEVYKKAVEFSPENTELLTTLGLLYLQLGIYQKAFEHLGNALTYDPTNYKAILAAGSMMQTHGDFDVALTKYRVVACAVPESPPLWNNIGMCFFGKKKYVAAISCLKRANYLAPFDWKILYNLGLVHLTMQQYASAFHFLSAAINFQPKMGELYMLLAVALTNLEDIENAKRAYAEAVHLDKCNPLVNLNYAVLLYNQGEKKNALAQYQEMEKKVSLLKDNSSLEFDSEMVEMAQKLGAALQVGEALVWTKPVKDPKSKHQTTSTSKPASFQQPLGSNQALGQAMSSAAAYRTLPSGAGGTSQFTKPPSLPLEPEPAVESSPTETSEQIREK

Variants of: B1
Settings: with bbs4_human BBS4, Q96RK4

| Variant | effect of a mutation on the interaction |
| --- | --- |
| F864K | with no effect |
| Q524K | with no effect |
| Q524A | with no effect |
| P840K | with no effect |
| V749E | with no effect |
| D571E | with no effect |
| T405A | with no effect |
| T405K | with no effect |
| A682K | with no effect |
| L695K | with no effect |
| L695M | disrupting interaction strength |
| R619E | with no effect |
| D631A | with no effect |
| Q693E | with no effect |
| G584A | with no effect |
| S886E | with no effect |
| A544E | with no effect |
| L609A | with no effect |
| F563E | with no effect |
| L665E | with no effect |
| V577K | with no effect |
| Q858A | with no effect |
| Q717K | with no effect |

| Variant | effect of a mutation on the interaction |
| --- | --- |
| L819K | with no effect |
| G884A | with no effect |
| F421A | with no effect |
| E790K | with no effect |
| S593A | with no effect |
| D817E | with no effect |
| D435K | with no effect |
| S639K | with no effect |
| L666K | with no effect |
| L666A | with no effect |
| N515C | disrupting interaction strength |
| N719E | with no effect |
| I735A | with no effect |
| P834A | with no effect |
| V522E | with no effect |
| A775K | with no effect |
| F472A | with no effect |
| Y645E | with no effect |
| S635K | with no effect |
| N716K | with no effect |
| S785A | with no effect |
| V432K | with no effect |
| E625A | with no effect |

| Variant | effect of a mutation on the interaction |
| --- | --- |
| Q627E | with no effect |
| F582A | with no effect |
| Q722A | with no effect |
| T702R | disrupting interaction strength |
| A708K | with no effect |
| S667E | with no effect |
| L457K | with no effect |
| L457A | with no effect |
| P691K | with no effect |
| Q453K | with no effect |
| L799E | with no effect |
| S458A | with no effect |
| Q539E | with no effect |
| G842A | with no effect |
| Y703H | disrupting interaction strength |
| T496K | with no effect |
| L779E | with no effect |
| E761K | with no effect |
| D773E | with no effect |
| F724A | with no effect |
| A755E | with no effect |
| L611A | with no effect |
| S806K | with no effect |

| Variant | effect of a mutation on the interaction |
| --- | --- |
| W741E | with no effect |
| L814E | with no effect |
| T845K | with no effect |
| T688A | with no effect |
| L808K | with no effect |
| L616E | with no effect |
| T468A | with no effect |
| T468E | with no effect |
| F756E | with no effect |
| T725K | with no effect |
| T725A | with no effect |
| E615A | with no effect |
| Q760K | with no effect |
| I801E | with no effect |
| D700E | with no effect |
| L766K | with no effect |
| L766A | with no effect |
| S603N | disrupting interaction strength |
| P497A | with no effect |
| P497K | with no effect |
| P497E | with no effect |
| Q677E | with no effect |
